Patent publication US20060045883A1 (published 2006)

Experiments:
[1] = biological target: T1, HLA-A2.1 (HLA-A*0201) on the surface of T2 cells (human); experiment: T2 stabilisation assay, indirect flow cytometry with BB7.2 (FIG. 34)
T1 construct: also called HLA-A2 on T2

[2] = biological target: T2, HLA-A2.1 heavy chain with I125-labeled beta2-microglobulin (heterotrimer dissociation assay) (human, I^125-labeled); experiment: I125-beta2-microglobulin dissociation assay
T2 construct: T1/2 is the half-time of dissociation of labeled beta2-microglobulin from the heavy chain/peptide/beta2-microglobulin complex; also called HLA-A2.1 heavy chain / beta2-microglobulin complex

[3] = biological target: T2, HLA-A2.1 heavy chain with I125-labeled …; experiment: dissociation of I125-labeled beta2-microglobulin from the heavy chain/peptide/beta2-microglobulin complex, HPLC gel filtration
[4] = biological target: T1, HLA-A2.1 (HLA-A*0201) on the surface of …; experiment: T2 stabilisation assay, flow cytometry

Binder | binding result [1] | binding result [2] | T1/2 [3] | binding result [4]
LIQPFMFRL [MY5 peptide of myeloperoxidase] | binds | binds | – | –
LLSYFKQPV [MY3 peptide of myeloperoxidase] | binds | binds | – | –
KLLLALAGL [MY2 peptide of myeloperoxidase] | binds | binds | – | –
KLNDILLIQL (also called PR71) [PR7I peptide of proteinase 3 (amino acid 115-124, Ile 119 variant)] | – | – | – | binds

Next, values leading:

binding result [1] | binding result [2] | T1/2 [3] | binding result [4] | Binder
binds | binds | – | – | SLWRRPFNV [MY1 peptide of myeloperoxidase]
– | – | 24.3 h | – | VLQELNVTV (Synthetic peptide, minimum 95% purity) [PR1 (aa 169-177) peptide of proteinase 3]
– | – | – | binds | KLNDVLLIQL [PR7V peptide of proteinase 3 (amino acid 115-124, Val 119 variant)]
– | – | 2.33 h | – | RLFPDFFTRV [PR2 peptide of proteinase 3]
binds | binds | – | – | RLFEQVMRI [MY4 peptide of myeloperoxidase]
